experiment: yeast display, Sf9 membrane polyspecificity reagent, FACS + sequencing; frameworks hold sequencing errors
Method in brief: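 Nanobodies came from a synthetic yeast display library in Saccharomyces cerevisiae BJ5465, induced with galactose for 36–48 hours and stained for 1 hour at 4 °C with 10% biotinylated, detergent-solubilized Sf9 membrane reagent. Cells were enriched on streptavidin microbeads and then FACS-sorted, with low and high (top ~1%) gates set on anti-HA fluorescence for expression and streptavidin fluorescence for reagent binding. Each polyreactivity label reflects the gate a clone came from. Genes were amplified by colony PCR, sequenced by MiSeq 2 × 250 and filtered by CDR length.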

**Q.** For “QVQLVESGGGLVQAGGSLRLSCAASGRTFRYNTMGWYRQAPGKERELVAAITRSGGTTYYADSVKGRFTISRDNAKNTVYLQMNSLKPEDTSVYYCAAEGQAVRKSARDVFFEEFDYWGHGTQVTVSS”, which “polyreactivity (PSR sort gate)” value is on record?
**A.** The value was “low polyreactivity”.

**Q.** With “QVQLVESGGALLQAGGSLRLSCAASGGTFYDYAMGWYRQAPGKERELVAAISASGDSTYYADSVKGRFTISRDNAMNTVYLQMNSLKPEDTAVYYCAAEFTAFDGFDYWGQGTQVTVSS” as the sequence, how does the “polyreactivity (PSR sort gate)” value read?
**A.** The value was “low polyreactivity”.

**Q.** Which “polyreactivity (PSR sort gate)” value does the source give for “QVQLVESGGCLVQAGGSLRLSCAASGSIFIWYAMGWYRQAPGKERELVASITYSAGRTYYADSVKGRFTISRDNAKNTVYLQMNSLKPEDTAVYYCAADSPYVYTLDSYGEGDYWGQGTQVTVSS” here?
**A.** Its value is “low polyreactivity”.

**Q.** For “QVQLVESWGGLVQAGGSLRLSCAASGSTFIQNAMGWYRQAPGKERELVAAITSGGGTNYADSVKGRFTISRDNAQNTVYLQMNSLKPEDTAVYYCAAEPFNYDDFWFGWEYQYEYWGQGTQVTVSS”, which “polyreactivity (PSR sort gate)” value is on record?
**A.** The value was “low polyreactivity”.

**Q.** For “QVQLVESGVGLVQAGGSLRLSCAASGRIFNSYAMGWYRQAPGKERELVAAISRNGGITYYADSVKGRFTISRDNAKNTVYLQMNSLKPEDTAVYYCAADGLTPKAIWTSDYWGQGTQVTVSS”, which “polyreactivity (PSR sort gate)” value is on record?
**A.** Its value is “high polyreactivity”.

**Q.** Which “polyreactivity (PSR sort gate)” value does the source give for “QVQLVESCGGLVQAGGSLRLSCAASGSTFSYNAMGWYRQAPGKEREMVAAITYGGGSTYYADSVKGRFTISRDNAKNTVYLQMNSLKPEDTAVYYCAVEKYGRYRPYSYGYWGQGTQVTVSS” here?
**A.** Its value is “high polyreactivity”.

**Q.** With “QVQLVESGGGLVQAGGSLRLSCAASGLTFVDNALGWYRQAPGKERELVAAISYNGGSTYYADSVKGRFTISRDNAKNTVYLQMNSLKPEDTAVYYCAADISVGRYGDMDYWGQGTQVTVSS” as the sequence, how does the “polyreactivity (PSR sort gate)” value read?
**A.** The value was “low polyreactivity”.

**Q.** For “QVQLVESGGGLFQAGGSLRLSCAASGRIFGGYAMGWYRQAPGTERELVAAIDWDGGSTYYADSVKGRFTISRDNEKNTVYLQMNSLKPEDTAVYYSNAVKWTWWSSSGDYDYWGQGTQVTVSS”, which “polyreactivity (PSR sort gate)” value is on record?
**A.** The value was “high polyreactivity”.

**Q.** Which “polyreactivity (PSR sort gate)” value does the source give for “QVQLVESGGGLVQAGGSLRLICAASGRILYGNVMGWYRQAPGKERELVAAIDSSGATTYYADSVKGRFTISRDNAKNTVYLQMNSLKPEDTAVYYCAAEVTSFSFGGDATEYYWGQGTQVTVSS” here?
**A.** Its value is “low polyreactivity”.

**Q.** For “QVQLVESGGGLVQAGGSLRLSCASSGNIFVPNAMGGYRQAPGKERELVAAIRRGGSTNYADSVKGRFTISRDNAQNTVDGQMNSLKPEDTAVYYCAKSRVSFTDLEGYYWGQGTQVTVSS”, which “polyreactivity (PSR sort gate)” value is on record?
**A.** Its value is “low polyreactivity”.

**Q.** Which “polyreactivity (PSR sort gate)” value does the source give for “QVQLVESGGGLVQAGGSLRLSCAASGSIFDFYAMGWYRQAPGKEREFVAAITQSGASTYADSVKGRFTISRDNAKNTVYLQMNSLKPEDTAVYYCNADSGGRGAPTSTYDYWGQGSQVTVSS” here?
**A.** The value was “low polyreactivity”.

**Q.** With “QVQLVESGGGLVQAGGSLRLSCAAYGSIFTRNAMGWYRQAPGKERELVATITSNDGSTNYADSVKGRFTISRDNAKNTVYLQMISLKPEDTAVYYCNRSYGVYSEFDYWGQGTQVTVSS” as the sequence, how does the “polyreactivity (PSR sort gate)” value read?
**A.** The value was “low polyreactivity”.

**Q.** Which “polyreactivity (PSR sort gate)” value does the source give for “QVQLVESGGGLVQAGGILRLRCAASGSTYGYYAMGWSRQAPGKERELVAAISGSGGRTYYADSVKGRFTISRDNAKNTVYLQMNSLKPEDTAVYYCNTATKNIYDYCGQGTQVTVSS” here?
**A.** Its value is “high polyreactivity”.

**Q.** With “QVQLVESGGGLVQAGGSLRLSCAASGSIFSVYSMGWYRQAPGKERELVADITRSGARTYYADSVKGRFTISRDNAKNTVYFPMNSLKPEDTAVYYCAADDPCYDQVEYWGQGTQVTVSS” as the sequence, how does the “polyreactivity (PSR sort gate)” value read?
**A.** The value was “high polyreactivity”.

**Q.** With “QVQLVESGGGLVQAGGSLRLSCAASGRISVVNAMGWYRQAPGKERELVATINRGGSTYADSVKGRFTISRDNAKNTVYLQMNSLKPEDTAVYYCAATSFSVRFTRYYYWGQGTQVTVSS” as the sequence, how does the “polyreactivity (PSR sort gate)” value read?
**A.** The value was “high polyreactivity”.

**Q.** With “QDQLVDSGGGLVQAGGSLSLSCAASGRTSGRYAMGWYRQAPGKERELVAGITSSGGSTYYADSVKGRFTISRDNAKNTVYLQMNSLKPEDTAVYYCAKVWGAKGKTYRMYSWGKGTQVTVSS” as the sequence, how does the “polyreactivity (PSR sort gate)” value read?
**A.** The value was “high polyreactivity”.

**Q.** With “QVQLVESGGGLVQAGGSLRLSCAASGSIIGTYAMGWYRQAPGKERELVAAISSSSTRTYYADSVKGRFTISRDTAKNTVYLQMNSLKPEDTAVYYCAATFTAVRGKYGYWGQGTQVTVSS” as the sequence, how does the “polyreactivity (PSR sort gate)” value read?
**A.** Its value is “high polyreactivity”.

**Q.** Which “polyreactivity (PSR sort gate)” value does the source give for “QVQLVESGGGLVQAGGSLRLSCAASGRIFPRYAMGWYRQAPGKERELFATISSGGSTYYADSVKGRFTISRDNAKNTVYLQMNSLKPEDTAVYYCAARKRPYTVINGMDYWGQGTQVTVSS” here?
**A.** Its value is “low polyreactivity”.

**Q.** Which “polyreactivity (PSR sort gate)” value does the source give for “QVQLVESGGGLVQAGGSLRLSCAASGNIFYSYAMGWYRQAPGKARELVATIRSGGSTYYADSVKGRFTISRDKAKNTVYLQMNSLKPEDTAVYYCAAPYPYRYFEYYWGQGTQVNVSS” here?
**A.** The value was “low polyreactivity”.

**Q.** With “QVQLVESGVGLGQAGGSLRLSCAASGRTYWRYAMGWYRQAPGKETELVASINWNGGSTYYADSVKGRFTNSRDNAKNTVYLQMNSLKPEDTAVYYCAALRWPVYLFDYWGQGTQVTVSS” as the sequence, how does the “polyreactivity (PSR sort gate)” value read?
**A.** The value was “high polyreactivity”.

**Q.** Which “polyreactivity (PSR sort gate)” value does the source give for “QVQLVESGGGLVQAGGSLRLSCAASGRTFAYYAMGWYRQAPGKERELVAAIDSSGGDTYYADSVKGRFTISRDNAKNTVYLQMNSLKPEDTAVYYCAADYYWEMDSWGQGTQVTVSS” here?
**A.** The value was “low polyreactivity”.

**Q.** Which “polyreactivity (PSR sort gate)” value does the source give for “QVHLVESGGGLVQAGGSLRLSGAASGSTFLEYARGWYRQAPGKERELVADISSGGGTHYADSVKGRFTISRDNAKNTVYLQMNSLKPDDTAVYYCNRDISGSSGGELDYWGQGSQVTVSS” here?
**A.** Its value is “low polyreactivity”.

**Q.** With “QVQLVESGGGLVQAGGSLRLSCAASGSTFLRYAMGWYRQAPGKERELVAAINLSGDRTYYADSVKGRFTISRDNAKNTDYVQMNSLKPEDTAVYYCAARWWGPSYDAYDYWVQGTQVTVSS” as the sequence, how does the “polyreactivity (PSR sort gate)” value read?
**A.** The value was “low polyreactivity”.

**Q.** With “QVQLVESGGGLVQAGGSLRLSCAASGSIFVNNAMGWYRQAPGKERELVAAISSRGGSTYYADSVKGRFTISRDNAKNTVYLQMNSLKPEDTAVYYCAAEYDGPYYSFYPEQRYYWGQGTLVTVSS” as the sequence, how does the “polyreactivity (PSR sort gate)” value read?
**A.** Its value is “low polyreactivity”.

**Q.** Which “polyreactivity (PSR sort gate)” value does the source give for “QVHLVESGGGLVQAGGSLRLSCAASGRTFENNAMGWYRPAPGKESELVAAITVSGGSTYYADSVKGRFTLSRDNAKNTVDLQMNSLKPEDTAVYYCAIVGFGIPGGFYYWGEGTQVTVSS” here?
**A.** Its value is “low polyreactivity”.

**Q.** With “HVQLVESGGGLVQAGGSLRLSCAASGFIFQYYCMGWYRQATRKERELVAAIDSRGGSTYYADSVKGRFTISRDNAKNTVYLQMNSLNPADTAVYYCAAMGLYQGTLNHFYYWGQGTQVTVSS” as the sequence, how does the “polyreactivity (PSR sort gate)” value read?
**A.** Its value is “low polyreactivity”.

**Q.** For “QVQLVESGGGLVQAGGSLRLSCAASGFIFLPYAMGWYRQEPGKERELVAAITRGGRTYYADSVKGRFTISRDNAKNTVSLQMNSLKPEVTAVSYFAATPYLFWGYNYWGQGTQVTVSS”, which “polyreactivity (PSR sort gate)” value is on record?
**A.** Its value is “low polyreactivity”.

**Q.** With “QVQLVESGGGLVQAGGSLRLTCAASGSIFVGYAMGWYREAPGKEMELVAAITTRGDTTYYADSVKGRFTISRDNAKNTVYLQMNSLKPEHTAVYYCNTTSFFQAWPSDVQYDYWGQGTQVTVSS” as the sequence, how does the “polyreactivity (PSR sort gate)” value read?
**A.** Its value is “low polyreactivity”.

**Q.** With “QVQLVESGVGLVQAGGSLRLSCAASGLILYTYAMGWYRQAPGKESELVAAINSGGRTNYADSVKGRFTISRDNAKNSVYLQMNSLKPEDTAVYYCAADYGSRVRGFNYWGQGTQVTVSS” as the sequence, how does the “polyreactivity (PSR sort gate)” value read?
**A.** The value was “low polyreactivity”.

**Q.** For “QVQLVESGGGLVQAGGSLRLSCAASGRIFTSYAMGWYRQAPGKERELVAAISRRGDSTYYADSVKGRFTISRDNAKNTVYLQMNSLKPEDTAVYYCNARSSRIWDYYGFDYWGQGTQVTVSS”, which “polyreactivity (PSR sort gate)” value is on record?
**A.** Its value is “high polyreactivity”.

From the nanobody polyreactivity screen of Harvey et al. (2022)
